PMC10390531, “Structural insights into ligand recognition and subtype selectivity of the human melanocortin-3 and melanocortin-5 receptors” (Cell Discovery, 2023)
Entries after “also recorded” stand apart in the source; their conditions may differ. Blank lines part the entries; values can stand above or below the compound they belong to.

Tests used:
MC5R = experiment: Effect of divalent ions on cAMP accumulation, MC5R; type: cell-based, human
Description: (§1) For assessing the effect of divalent ions on cAMP signaling, HEK293T cells were digested with 0.02% (w/v) EDTA and washed three times with calcium/magnesium-free HBSS buffer. Then the cells were resuspended and stimulated with different concentrations of ligands in Ca^2+-free stimulation buffer (the aforementioned stimulation buffer supplemented with 1 mM EGTA), or with additional 2 mM divalent ions in Ca^2+-free stimulation buffer ([divalent ions] = ~1 mM)[38]. The rest of steps were essentially the same as described above.

MC3R = experiment: Effect of divalent ions on cAMP accumulation, MC3R; type: cell-based, human
Description: as §1

[1] = target: MC3R mutant L128^3.36A (human) (UniProt P41968)
[2] = target: MC3R mutant L128^3.36V (human) (UniProt P41968)
[3] = target: MC5R mutant D115^3.25A (human) (UniProt P33032)
[4] = target: MC5R mutant F118^3.28A (human) (UniProt P33032)
[5] = target: MC5R mutant F254^6.51A (human) (UniProt P33032)
[6] = target: MC5R mutant L99^2.67A (human) (UniProt P33032)
[7] = target: MC5R mutant V126L (human) (UniProt P33032)
[8] = target: MC5R mutant V126^3.36A (human) (UniProt P33032)
[9] = target: wild-type MC5R on cells (human) (UniProt P33032)
MC2R = experiment: Effect of divalent ions on cAMP accumulation, MC2R; type: cell-based; conditions: 1 mM Ca^2+ vs divalent ion-free background, HEK293T
Description: as §1

wild-type MC2R on cells = wild-type MC2R on cells (UniProt Q01718)
[10] = target: MC5R mutant F254^6.51A (human) (UniProt P33032); remark: listed apart in the source
[11] = target: MC5R mutant D115^3.25A (human) (UniProt P33032); remark: listed apart in the source
[12] = target: MC5R mutant D119^3.29A (human) (UniProt P33032)
[13] = target: MC3R mutant D121^3.29A (human) (UniProt P41968)
[14] = target: MC3R mutant F258^6.51A (human) (UniProt P41968)
[15] = target: MC3R mutant F45^1.39A (human) (UniProt P41968)
[16] = target: MC3R mutant H261^6.54A (human) (UniProt P41968)
[17] = target: MC3R mutant I180^4.61A (human) (UniProt P41968)
[18] = target: MC3R mutant I265^6.58M (human) (UniProt P41968)
[19] = target: MC3R mutant I265^6.58W (human) (UniProt P41968)
[20] = target: MC3R mutant I265^6.58Y (human) (UniProt P41968)
wild-type MC1R on cells = wild-type MC1R on cells (UniProt Q01726)
[21] = target: wild-type MC3R on cells (human) (UniProt P41968)
[22] = target: MC3R mutant F45^1.39A (human) (UniProt P41968); remark: listed apart in the source

Chain of MC5R mutant F254^6.51A (human) (P33032 other isoform, or with tags, fused parts or gaps mutant): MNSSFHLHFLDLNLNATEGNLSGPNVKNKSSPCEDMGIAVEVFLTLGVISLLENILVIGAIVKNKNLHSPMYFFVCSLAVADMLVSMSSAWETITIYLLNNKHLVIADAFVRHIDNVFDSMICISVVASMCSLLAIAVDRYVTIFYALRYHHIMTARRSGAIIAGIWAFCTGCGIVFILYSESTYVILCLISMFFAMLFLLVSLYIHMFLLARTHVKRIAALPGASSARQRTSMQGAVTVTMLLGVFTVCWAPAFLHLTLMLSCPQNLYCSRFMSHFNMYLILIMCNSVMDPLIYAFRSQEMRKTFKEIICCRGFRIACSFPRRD
Chain of wild-type MC5R on cells (human) (P33032 whole entry): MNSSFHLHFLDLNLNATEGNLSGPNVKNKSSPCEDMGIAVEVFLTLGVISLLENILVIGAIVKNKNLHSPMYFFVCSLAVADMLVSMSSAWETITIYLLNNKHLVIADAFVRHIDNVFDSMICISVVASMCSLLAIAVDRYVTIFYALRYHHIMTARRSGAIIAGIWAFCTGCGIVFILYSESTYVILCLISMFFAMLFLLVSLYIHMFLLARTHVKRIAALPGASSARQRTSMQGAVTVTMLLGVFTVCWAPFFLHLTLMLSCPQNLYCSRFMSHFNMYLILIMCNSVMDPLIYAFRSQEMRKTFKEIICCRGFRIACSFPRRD
Chain of MC3R mutant F45^1.39A (human) (P41968 other isoform, or with tags, fused parts or gaps mutant): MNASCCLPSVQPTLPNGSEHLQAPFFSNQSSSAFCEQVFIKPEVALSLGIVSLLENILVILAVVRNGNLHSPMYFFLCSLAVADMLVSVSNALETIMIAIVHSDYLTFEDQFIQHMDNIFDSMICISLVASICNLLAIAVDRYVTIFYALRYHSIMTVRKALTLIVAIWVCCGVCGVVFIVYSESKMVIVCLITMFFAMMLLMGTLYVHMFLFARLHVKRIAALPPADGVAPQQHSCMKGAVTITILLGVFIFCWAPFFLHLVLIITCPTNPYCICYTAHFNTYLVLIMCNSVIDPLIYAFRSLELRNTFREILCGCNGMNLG
Chain of MC5R mutant D115^3.25A (human) (P33032 other isoform, or with tags, fused parts or gaps mutant): as the sequence (P33032 whole entry) above, with D115A counted along it
Chain of wild-type MC2R on cells (Q01718 whole entry): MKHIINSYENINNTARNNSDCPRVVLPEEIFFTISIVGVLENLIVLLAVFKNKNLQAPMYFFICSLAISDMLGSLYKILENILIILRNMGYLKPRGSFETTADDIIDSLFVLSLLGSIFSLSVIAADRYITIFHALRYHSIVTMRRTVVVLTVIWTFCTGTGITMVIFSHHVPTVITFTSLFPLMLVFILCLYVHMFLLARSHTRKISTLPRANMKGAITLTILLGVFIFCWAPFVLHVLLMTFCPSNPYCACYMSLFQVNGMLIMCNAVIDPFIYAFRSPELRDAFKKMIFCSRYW
Chain of MC5R mutant L99^2.67A (human) (P33032 other isoform, or with tags, fused parts or gaps mutant): as the sequence (P33032 whole entry) above, with L99A counted along it
Chain of MC3R mutant D121^3.29A (human) (P41968 other isoform, or with tags, fused parts or gaps mutant): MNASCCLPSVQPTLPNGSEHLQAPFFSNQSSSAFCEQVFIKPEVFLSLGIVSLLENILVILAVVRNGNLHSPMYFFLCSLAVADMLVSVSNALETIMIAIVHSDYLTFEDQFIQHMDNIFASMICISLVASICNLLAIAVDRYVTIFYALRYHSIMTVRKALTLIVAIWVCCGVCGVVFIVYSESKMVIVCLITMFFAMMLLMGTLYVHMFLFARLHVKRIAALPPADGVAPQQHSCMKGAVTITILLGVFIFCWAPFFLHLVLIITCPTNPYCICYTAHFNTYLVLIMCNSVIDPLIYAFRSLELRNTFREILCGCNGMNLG
Chain of MC3R mutant H261^6.54A (human) (P41968 other isoform, or with tags, fused parts or gaps mutant): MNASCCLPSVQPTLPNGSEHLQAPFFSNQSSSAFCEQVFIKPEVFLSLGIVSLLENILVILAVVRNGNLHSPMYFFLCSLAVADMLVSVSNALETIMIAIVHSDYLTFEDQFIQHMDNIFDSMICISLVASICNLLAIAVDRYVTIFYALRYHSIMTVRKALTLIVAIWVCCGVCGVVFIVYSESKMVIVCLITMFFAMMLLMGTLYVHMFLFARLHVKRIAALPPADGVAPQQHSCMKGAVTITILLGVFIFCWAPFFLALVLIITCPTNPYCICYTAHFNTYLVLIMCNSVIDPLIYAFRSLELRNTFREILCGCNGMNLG
Chain of wild-type MC1R on cells (Q01726 whole entry): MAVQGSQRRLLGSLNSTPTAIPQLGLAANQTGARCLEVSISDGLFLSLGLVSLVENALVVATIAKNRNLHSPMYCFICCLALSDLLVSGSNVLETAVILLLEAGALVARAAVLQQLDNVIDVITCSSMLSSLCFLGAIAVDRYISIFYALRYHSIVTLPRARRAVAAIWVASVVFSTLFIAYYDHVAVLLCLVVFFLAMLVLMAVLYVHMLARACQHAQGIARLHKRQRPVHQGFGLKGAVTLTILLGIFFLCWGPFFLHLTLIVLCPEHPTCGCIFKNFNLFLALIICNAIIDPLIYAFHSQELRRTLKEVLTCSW
Chain of MC5R mutant D119^3.29A (human) (P33032 other isoform, or with tags, fused parts or gaps mutant): as the sequence (P33032 whole entry) above, with D119A counted along it
Chain of MC3R mutant I265^6.58Y (human) (P41968 other isoform, or with tags, fused parts or gaps mutant): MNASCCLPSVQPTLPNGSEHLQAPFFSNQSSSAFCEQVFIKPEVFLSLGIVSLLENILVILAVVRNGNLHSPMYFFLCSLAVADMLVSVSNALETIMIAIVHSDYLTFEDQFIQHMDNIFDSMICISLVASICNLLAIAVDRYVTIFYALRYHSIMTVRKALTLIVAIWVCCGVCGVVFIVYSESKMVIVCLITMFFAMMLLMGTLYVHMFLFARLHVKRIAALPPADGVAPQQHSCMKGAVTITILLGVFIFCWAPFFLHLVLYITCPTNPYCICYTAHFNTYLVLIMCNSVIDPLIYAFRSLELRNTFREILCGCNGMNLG
Chain of MC5R mutant V126^3.36A (human) (P33032 other isoform, or with tags, fused parts or gaps mutant): as the sequence (P33032 whole entry) above, with V126A counted along it
Chain of MC5R mutant F118^3.28A (human) (P33032 other isoform, or with tags, fused parts or gaps mutant): as the sequence (P33032 whole entry) above, with F118A counted along it
Chain of MC3R mutant I265^6.58M (human) (P41968 other isoform, or with tags, fused parts or gaps mutant): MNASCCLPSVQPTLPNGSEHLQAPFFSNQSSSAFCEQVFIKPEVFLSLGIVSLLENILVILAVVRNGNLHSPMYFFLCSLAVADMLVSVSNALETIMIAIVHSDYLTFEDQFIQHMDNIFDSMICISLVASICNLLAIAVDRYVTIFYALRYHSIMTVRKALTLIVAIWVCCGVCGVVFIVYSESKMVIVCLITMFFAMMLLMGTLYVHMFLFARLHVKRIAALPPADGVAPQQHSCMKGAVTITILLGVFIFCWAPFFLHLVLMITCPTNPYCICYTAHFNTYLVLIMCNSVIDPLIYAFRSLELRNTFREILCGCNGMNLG
Chain of MC3R mutant L128^3.36V (human) (P41968 other isoform, or with tags, fused parts or gaps mutant): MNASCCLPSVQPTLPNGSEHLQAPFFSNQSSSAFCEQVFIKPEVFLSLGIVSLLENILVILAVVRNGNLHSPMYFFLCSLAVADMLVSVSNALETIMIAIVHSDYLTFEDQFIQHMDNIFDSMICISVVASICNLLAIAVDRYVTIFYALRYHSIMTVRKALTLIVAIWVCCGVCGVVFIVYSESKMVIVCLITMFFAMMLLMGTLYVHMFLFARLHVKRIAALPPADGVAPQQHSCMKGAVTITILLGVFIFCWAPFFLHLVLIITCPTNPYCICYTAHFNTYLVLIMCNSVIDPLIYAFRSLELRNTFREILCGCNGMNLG

Compound: [Mg+2] [Mg^2+, magnesium ion]
effect of Mg^2+ on Gs signaling (MC5R; 1 mM Mg^2+): neglectable impact; also recorded: little impact | effect of Mg^2+ on Gs signaling (MC3R; 1 mM Mg^2+): neglectable impact; also recorded: little impact

Compound: [Zn+2] [Zn^2+, zinc ion]
effect of Zn^2+ on ligand-induced cAMP response (MC5R; 1 mM Zn^2+, α-MSH or PG-901): dramatic reduction of cAMP response; also recorded: inhibited the efficacy | effect of Zn^2+ on ligand-induced cAMP response (MC3R; 1 mM Zn^2+, γ-MSH): dramatic reduction of cAMP response; also recorded: inhibited the efficacy

PG-901-induced cAMP response, HEK293T cells; EC50 [1]: 250 nM | PG-901-induced cAMP response, HEK293T cells; EC50 [2]: 32 nM | PG-901-induced cAMP accumulation, HEK293T cells; fold reduction against WT [3]: 43 fold | PG-901-induced cAMP accumulation, HEK293T cells; fold reduction against WT [4]: 4 fold | PG-901-induced cAMP accumulation, HEK293T cells; fold decrease of potency against WT [5]: 44 fold | PG-901-induced cAMP accumulation, HEK293T cells; fold reduction against WT [6]: 10 fold | PG-901-induced cAMP responses, HEK293T cells; fold reduction against WT [7]: 16 fold | PG-901-induced cAMP accumulation, HEK293T cells; fold decrease of potency against WT [8]: 8 fold | PG-901-induced cAMP accumulation, HEK293T cells; fold increase of potency with 1 mM Ca2+ against a divalent ion-free background [9]: 230 fold
Compound: PG-901 (peptide)

Compound: adrenocorticotropic hormone (SYSMEHFRWGKPVGKKRRPVKVYPNGAEDESAEAFPLEF; Corticotropin; UniProt P01189 138-176, looked up) [ACTH]
increase of potency by Ca^2+ (MC2R): 6309 fold

ACTH-induced cAMP accumulation, HEK293T cells; fold increase of potency with 1 mM Ca2+ against a divalent ion-free background (wild-type MC2R on cells): 6310 fold
Compound: adrenocorticotropic hormone (peptide)

α-MSH-induced cAMP accumulation, HEK293T cells; fold decrease of potency against WT [10]: > 100 fold | α-MSH-induced cAMP accumulation, HEK293T cells; fold decrease of potency against WT [11]: 269 fold | α-MSH-induced cAMP accumulation, HEK293T cells; fold reduction against WT [12]: 447 fold | α-MSH-induced cAMP accumulation, HEK293T cells; fold increase of potency with 1 mM Ca2+ against a divalent ion-free background [9]: 182 fold
Compound: α-MSH (peptide)

γ-MSH-induced cAMP accumulation, HEK293T cells; fold decrease of potency against WT [13]: 22 fold | γ-MSH-induced cAMP accumulation, HEK293T cells; fold decrease of potency against WT [14]: 30 fold | γ-MSH-induced cAMP accumulation, HEK293T cells; fold reduction of potency against WT [15]: 126 fold | γ-MSH-induced cAMP accumulation, HEK293T cells; fold decrease of potency against WT [16]: 32 fold | γ-MSH-induced cAMP accumulation, HEK293T cells; fold decrease of potency against WT [17]: 22 fold | γ-MSH-induced cAMP accumulation, HEK293T cells; fold decrease of potency against WT [18]: 3 fold | γ-MSH-induced cAMP accumulation, HEK293T cells; fold decrease of potency against WT [19]: 18 fold | γ-MSH-induced cAMP accumulation, HEK293T cells; fold decrease of potency against WT [20]: 4 fold | γ-MSH-induced cAMP accumulation, HEK293T cells; fold increase of potency with 1 mM Ca2+ against a divalent ion-free background (wild-type MC1R on cells): 294 fold | γ-MSH-induced cAMP accumulation, HEK293T cells; fold increase of potency with 1 mM Ca2+ against a divalent ion-free background [21]: 407 fold | fold reduction of binding affinity against the wild type [22]: 48 fold
Compound: γ-MSH (peptide)
